{"source": "paper PMC5646241", "about": "“Copper Chaperone CupA and Zinc Control CopY Regulation of the Pneumococcal cop Operon”", "key": {"[1]": {"target": "CopY, repressor of the Streptococcus pneumoniae cop operon (Streptococcus pneumoniae TIGR4)", "experiment": "SEC-MALS; WTC-010S5 column, 50 mM Tris-HCl pH 7.5, 100 mM NaCl, 5% glycerol, with 100 µM zinc, 25°C"}, "[2]": {"target": "CopY, repressor of the Streptococcus pneumoniae cop operon (Streptococcus pneumoniae TIGR4)", "experiment": "SEC-MALS; WTC-010S5 column, 50 mM Tris-HCl pH 7.5, 100 mM NaCl, 5% glycerol, without zinc (apo CopY), 25°C"}, "CopY, zinc-bound": {"target": "CopY, zinc-bound (Streptococcus pneumoniae TIGR4, UniProt A0ACD7PQP7 1-131)", "experiment": "fluorescence polarization; 10 uM Zn2+; FP: 50 mM Tris-HCl pH 7.5, 100 mM NaCl, 5% glycerol, Chelex-treated, 10 nM DNA, temperature not stated; EMSA: TBS, 20 ul, 4 C, 50 uM CopY, 50 ng DNA, 6% TBE gel, 0.5x TB running buffer without EDTA", "conditions": "protein: recombinant; tags: pMCSG7 vector construct (tag not given); chain copies: 4; label: FAM on strand 1; blunt"}, "[3]": {"target": "T1, CopY (copper-responsive cop operon repressor) (Streptococcus pneumoniae TIGR4, UniProt A0ACD7PQP7 1-131)", "experiment": "fluorescence polarization; apo, no metal; FP: 50 mM Tris-HCl pH 7.5, 100 mM NaCl, 5% glycerol, Chelex-treated, 10 nM DNA, temperature not stated; EMSA: TBS, 20 ul, 4 C, 50 uM CopY, 50 ng DNA, 6% TBE gel, 0.5x TB running buffer without EDTA", "conditions": "protein: recombinant; tags: pMCSG7 vector construct (tag not given); chain copies: 2; label: FAM on strand 1; blunt"}, "[4]": {"target": "T1, CopY (copper-responsive cop operon …)", "experiment": "fluorescence polarization; apo; described as nonspecific binding, linear; FP: 50 mM Tris-HCl pH 7.5, 100 mM NaCl, 5% glycerol, Chelex-treated, 10 nM DNA, temperature not stated; EMSA: TBS, 20 ul, 4 C, 50 uM CopY, 50 ng DNA, 6% TBE gel, 0.5x TB running buffer without EDTA", "conditions": "protein: recombinant; tags: pMCSG7 vector construct (tag not given); chain copies: 2; label: FAM on strand 1; blunt"}, "[5]": {"target": "T1, CopY (copper-responsive cop operon …)", "experiment": "EMSA; no metal; 50 uM CopY; FP: 50 mM Tris-HCl pH 7.5, 100 mM NaCl, 5% glycerol, Chelex-treated, 10 nM DNA, temperature not stated; EMSA: TBS, 20 ul, 4 C, 50 uM CopY, 50 ng DNA, 6% TBE gel, 0.5x TB running buffer without EDTA", "conditions": "protein: recombinant; tags: pMCSG7 vector construct (tag not given); chain copies: 2; label: 3' biotin on strand 1; blunt"}}, "data": [{"molecule": "CopY, repressor of the Streptococcus pneumoniae cop operon (natural protein)", "values": [{"measurement": "stoichiometry N", "setting": "[1]", "value": 4}, {"measurement": "stoichiometry N", "setting": "[2]", "value": 2}]}, {"molecule": "pSP_0727 cop promoter, FAM (dsDNA) DNA 1: TCTATAATTGACAAATGTAGATTTTAAGAGTATACTGATGAGTGTAATTGACAAATG DNA 2: CATTTGTCAATTACACTCATCAGTATACTCTTAAAATCTACATTTGTCAATTATAGA", "values": [{"measurement": "Kd", "setting": "CopY, zinc-bound", "value": "0.52 ± 0.13", "unit": "µM"}, {"measurement": "Kd", "setting": "[3]", "value": "4.24 ± 0.78", "unit": "µM"}]}, {"molecule": "pSP_1541 promoter, FAM (dsDNA) DNA 1: GCGAACCTCACTTACCCCTTGCAAAGTCTTGGGGTCATTAGA DNA 2: TCTAATGACCCCAAGACTTTGCAAGGGGTAAGTGAGGTTCGC", "values": [{"measurement": "binding result", "setting": "[4]", "value": "no binding"}]}, {"molecule": "pSP_1541 promoter, biotinylated (dsDNA) DNA 1: GCGAACCTCACTTACCCCTTGCAAAGTCTTGGGGTCATTAGA DNA 2: TCTAATGACCCCAAGACTTTGCAAGGGGTAAGTGAGGTTCGC", "values": [{"measurement": "binding result", "setting": "[5]", "value": "no binding"}]}]}
